# B1: UGT78D1: Arabidopsis recombinant glycosyltransferase (protein, UniProt Q9S9P6 1-453, looked up)
# Flavonol-3-O-rhamnosyltransfer …: MTKFSEPIRDSHVAVLAFFPVGAHAGPLLAVTRRLAAASPSTIFSFFNTARSNASLFSSDHPENIKVHDVSDGVPEGTMLGNPLEMVELFLEAAPRIFRSEIAAAEIEVGKKVTCMLTDAFFWFAADIAAELNATWVAFWAGGANSLCAHLYTDLIRETIGLKDVSMEETLGFIPGMENYRVKDIPEEVVFEDLDSVFPKALYQMSLALPRASAVFISSFEELEPTLNYNLRSKLKRFLNIAPLTLLSSTSEKEMRDPHGCFAWMGKRSAASVAYISFGTVMEPPPEELVAIAQGLESSKVPFVWSLKEKNMVHLPKGFLDRTREQGIVVPWAPQVELLKHEAMGVNVTHCGWNSVLESVSAGVPMIGRPILADNRLNGRAVEVVWKVGVMMDNGVFTKEGFEKCLNDVFVHDDGKTMKANAKKLKEKLQEDFSMKGSSLENFKILLDEIVKV
# B2: UGT71C5: Arabidopsis recombinant glycosyltransferase (protein, UniProt Q9FE68 1-480, looked up)
# UDP-glycosyltransferase 71C5: MKTAELIFVPLPETGHLLSTIEFGKRLLNLDRRISMITILSMNLPYAPHADASLASLTASEPGIRIISLPEIHDPPPIKLLDTSSETYILDFIHKNIPCLRKTIQDLVSSSSSSGGGSSHVAGLILDFFCVGLIDIGREVNLPSYIFMTSNFGFLGVLQYLPERQRLTPSEFDESSGEEELHIPAFVNRVPAKVLPPGVFDKLSYGSLVKIGERLHEAKGILVNSFTQVEPYAAEHFSQGRDYPHVYPVGPVLNLTGRTNPGLASAQYKEMMKWLDEQPDSSVLFLCFGSMGVFPAPQITEIAHALELIGCRFIWAIRTNMAGDGDPQEPLPEGFVDRTMGRGIVCSWAPQVDILAHKATGGFVSHCGWNSVQESLWYGVPIATWPMYAEQQLNAFEMVKELGLAVEIRLDYVADGDRVTLEIVSADEIATAVRSLMDSDNPVRKKVIEKSSVARKAVGDGGSSTVATCNFIKDILGDHF
# B3: UGT71B5: Arabidopsis recombinant glycosyltransferase (protein, UniProt O23382 1-478, looked up)
# UDP-glycosyltransferase 71B5: MKIELVFIPLPGIGHLRPTVKLAKQLIGSENRLSITIIIIPSRFDAGDASACIASLTTLSQDDRLHYESISVAKQPPTSDPDPVPAQVYIEKQKTKVRDAVAARIVDPTRKLAGFVVDMFCSSMIDVANEFGVPCYMVYTSNATFLGTMLHVQQMYDQKKYDVSELENSVTELEFPSLTRPYPVKCLPHILTSKEWLPLSLAQARCFRKMKGILVNTVAELEPHALKMFNINGDDLPQVYPVGPVLHLENGNDDDEKQSEILRWLDEQPSKSVVFLCFGSLGGFTEEQTRETAVALDRSGQRFLWCLRHASPNIKTDRPRDYTNLEEVLPEGFLERTLDRGKVIGWAPQVAVLEKPAIGGFVTHCGWNSILESLWFGVPMVTWPLYAEQKVNAFEMVEELGLAVEIRKYLKGDLFAGEMETVTAEDIERAIRRVMEQDSDVRNNVKEMAEKCHFALMDGGSSKAALEKFIQDVIENMD
# B4: UGT78D3: Arabidopsis recombinant glycosyltransferase, FIG. 6 (protein, UniProt Q9LFK0 1-459, looked up)
# UDP-glycosyltransferase 78D3: MAKPSQPTRDSHVAVLVFPFGTHAAPLLAVTCRLATAAPSTVFSFFSTARSNSSLLSSDIPTNIRVHNVDDGVPEGFVLTGNPQHAVELFLEAAPEIFRREIKAAETEVGRKFKCILTDAFLWLAAETAAAEMKASWVAYYGGGATSLTAHLYTDAIRENVGVKEVGERMEETIGFISGMEKIRVKDTQEGVVFGNLDSVFSKTLHQMGLALPRATAVFINSFEELDPTFTNDFRSEFKRYLNIGPLALLSSPSQTSTLVHDPHGCLAWIEKRSTASVAYIAFGRVATPPPVELVAIAQGLESSKVPFVWSLQEMKMTHLPEGFLDRTREQGMVVPWAPQVELLNHEAMGVFVSHGGWNSVLESVSAGVPMICRPIFGDHAINARSVEAVWEIGVTISSGVFTKDGFEESLDRVLVQDDGKKMKVNAKKLEELAQEAVSTKGSSFENFGGLLDEVVNFG
# B5: UGT73B2: Arabidopsis recombinant glycosyltransferase (protein, UniProt Q94C57 1-483, looked up)
# UDP-glucosyl transferase 73B2: MGSDHHHRKLHVMFFPFMAYGHMIPTLDMAKLFSSRGAKSTILTTSLNSKILQKPIDTFKNLNPGLEIDIQIFNFPCVELGLPEGCENVDFFTSNNNDDKNEMIVKFFFSTRFFKDQLEKLLGTTRPDCLIADMFFPWATEAAGKFNVPRLVFHGTGYFSLCAGYCIGVHKPQKRVASSSEPFVIPELPGNIVITEEQIIDGDGESDMGKFMTEVRESEVKSSGVVLNSFYELEHDYADFYKSCVQKRAWHIGPLSVYNRGFEEKAERGKKANIDEAECLKWLDSKKPNSVIYVSFGSVAFFKNEQLFEIAAGLEASGTSFIWVVRKTKDDREEWLPEGFEERVKGKGMIIRGWAPQVLILDHQATGGFVTHCGWNSLLEGVAAGLPMVTWPVGAEQFYNEKLVTQVLRTGVSVGASKHMKVMMGDFISREKVDKAVREVLAGEAAEERRRRAKKLAAMAKAAVEEGGSSFNDLNSFMEEFSS
# B6: UGT72B3: Arabidopsis recombinant glycosyltransferase (protein, UniProt Q9LNI1 1-481, looked up)
# UDP-glycosyltransferase 72B3: MADGNTPHVAIIPSPGIGHLIPLVELAKRLLDNHGFTVTFIIPGDSPPSKAQRSVLNSLPSSIASVFLPPADLSDVPSTARIETRISLTVTRSNPALRELFGSLSAEKRLPAVLVVDLFGTDAFDVAAEFHVSPYIFYASNANVLTFLLHLPKLDETVSCEFRELTEPVIIPGCVPITGKDFVDPCQDRKDESYKWLLHNVKRFKEAEGILVNSFVDLEPNTIKIVQEPAPDKPPVYLIGPLVNSGSHDADVNDEYKCLNWLDNQPFGSVLYVSFGSGGTLTFEQFIELALGLAESGKRFLWVIRSPSGIASSSYFNPQSRNDPFSFLPQGFLDRTKEKGLVVGSWAPQAQILTHTSIGGFLTHCGWNSSLESIVNGVPLIAWPLYAEQKMNALLLVDVGAALRARLGEDGVVGREEVARVVKGLIEGEEGNAVRKKMKELKEGSVRVLRDDGFSTKSLNEVSLKWKAHQRKIDQEQESFL
# Assay: UGT enzyme reaction with quercetin (recombinant UGTs, HPLC)
# Format: biochemical, Arabidopsis
# Details: quercetin glucosylated at 3-OH; 0.5 mM quercetin, 5 mM UDP-glucose, 30° C.
# Experimental: The assay mix (200 μl) contained 2 μg of recombinant protein, 100 mM Tris-HCl, pH 7.0, 5 mM UDP-glucose 1.4 mM 2-mercaptoethanol, and 0.5 mM of quercetin. The reaction was carried out at 30° C. for 1 h, and was quick-frozen and stored at −20° C. prior to the reverse-phase HPLC analysis
# Reverse-phase HPLC (SpectraSYSTEM HPLC systems and UV6000LP Photodiode Array Detector, ThermoQuest) analysis was carried using a Columbus 5μ C18 column (250×4.60 mm, PHENOMENEX). Quercetin glucosides were separated from the aglycone by a linear gradient of 10-75% acetonitrile in H2O (all solution contained 0.1% trifluoroacetic acid) at 1 ml/mm over 20 mm and monitored at 370 nm. Cytokinin glucosides were separated from their aglycone by a liner gradient of 10-100% methanol in H2O (for N6-isopentenyladenine (iP), N6-benzyladenine and kinetin) or 10-60% methanol in H2O (for trans-zeatin and dihydrozeatin) at 1 ml/min over 20 mm. All solution contained 0.25% acetic acid and 0.04% triethylamine, trifluoroacetic acid. The separation was monitored at 206 nm and 252 nm. The identity of the products was confirmed by comparison with authentic gluco sides.
# The activity of Arabidopsis recombinant UGTs towards quercetin was determined using the platform developed previously^15.
row,Molecule,Specific activity (nkat/mg protein) 3-O-glc [nkat/mg protein]
1,B1,0.24
2,B2,0.33
3,B3,0.26
4,B4,0.16
5,B5,0.92
6,B6,0.20

# Same assay, conditions: quercetin glucosylated at 3′-OH; 0.5 mM quercetin, 5 mM UDP-glucose, 30° C.
row,Molecule,Specific activity (nkat/mg protein) 3′-O-glc
1,B1,— (Activity lower than 0.02 nkat/mg protein has been considered as trace activity and is not shown in the Table.)
2,B2,— (Activity lower than 0.02 nkat/mg protein has been considered as trace activity and is not shown in the Table.)
3,B3,— (Activity lower than 0.02 nkat/mg protein has been considered as trace activity and is not shown in the Table.)
4,B4,— (Activity lower than 0.02 nkat/mg protein has been considered as trace activity and is not shown in the Table.)
5,B5,— (Activity lower than 0.02 nkat/mg protein has been considered as trace activity and is not shown in the Table.)
6,B6,— (Activity lower than 0.02 nkat/mg protein has been considered as trace activity and is not shown in the Table.)

# Same assay, conditions: quercetin glucosylated at 4′-OH; 0.5 mM quercetin, 5 mM UDP-glucose, 30° C.
row,Molecule,Specific activity (nkat/mg protein) 4′-O-glc
1,B1,— (Activity lower than 0.02 nkat/mg protein has been considered as trace activity and is not shown in the Table.)
2,B2,— (Activity lower than 0.02 nkat/mg protein has been considered as trace activity and is not shown in the Table.)
3,B3,— (Activity lower than 0.02 nkat/mg protein has been considered as trace activity and is not shown in the Table.)
4,B4,— (Activity lower than 0.02 nkat/mg protein has been considered as trace activity and is not shown in the Table.)
5,B5,— (Activity lower than 0.02 nkat/mg protein has been considered as trace activity and is not shown in the Table.)
6,B6,— (Activity lower than 0.02 nkat/mg protein has been considered as trace activity and is not shown in the Table.)

# Same assay, conditions: quercetin glucosylated at 7-OH; 0.5 mM quercetin, 5 mM UDP-glucose, 30° C.
row,Molecule,Specific activity (nkat/mg protein) 7-O-glc
1,B1,— (Activity lower than 0.02 nkat/mg protein has been considered as trace activity and is not shown in the Table.)
2,B2,— (Activity lower than 0.02 nkat/mg protein has been considered as trace activity and is not shown in the Table.)
3,B3,— (Activity lower than 0.02 nkat/mg protein has been considered as trace activity and is not shown in the Table.)
4,B4,— (Activity lower than 0.02 nkat/mg protein has been considered as trace activity and is not shown in the Table.)
5,B5,— (Activity lower than 0.02 nkat/mg protein has been considered as trace activity and is not shown in the Table.)
6,B6,— (Activity lower than 0.02 nkat/mg protein has been considered as trace activity and is not shown in the Table.)

# Reference: patent publication US7662583B2, “Bioreactor containing cells expressing glycosyltransferase nucleic acids isolatable from Arabidopsis” (The University of York, priority 2003, dated 2010)
